In general, IC50 refers to the concentration at which inhibition is half-maximal. A word on the Kd: it is the equilibrium constant for the complex coming apart.

Assay [1] addresses HLA-A*11:01. Put plainly: IEDB peptide-MHC binding, purified MHC/competitive/radioactivity; ≥ and ≤ were set here for values at or beyond the usual limits of such assays. Particulars: source organism: Rhinovirus C.
In assay [2] the target is HLA-A*01:01. Put plainly: IEDB peptide-MHC binding, purified MHC/competitive/fluorescence; ≥ and ≤ were set here for values at or beyond the usual limits of such assays. The settings on record: source organism: Homo sapiens.
Assay [3] deals with HLA-A*02:01. The description is as above. Particulars: source organism: Homo sapiens.
In assay [4] the target is HLA-A*03:01. The description is as above. The settings on record: source organism: Homo sapiens.
For assay [5], the target named is HLA-A*11:01. The description is as above. Particulars: source organism: Homo sapiens.
The next assay has as its target HLA-A*24:02. Described as above. Particulars: source organism: Homo sapiens.
A further assay concerns the target HLA-A*25:01. The description is as above. The settings on record: source organism: Homo sapiens.
Assay [6] has as its target HLA-A*29:02. The assay is described as above. The settings on record: source organism: Homo sapiens.
The target in the next assay is HLA-A*31:01. The description is as above. Particulars: source organism: Homo sapiens.
Another assay addresses HLA-A*68:02. The description is as above. Particulars: source organism: Homo sapiens.
A further assay has as its target HLA-B*07:02. The description is as above. Particulars: source organism: Homo sapiens.
Assay [7] addresses HLA-B*08:01. Described as above. Particulars: source organism: Homo sapiens.
Assay [8] addresses HLA-B*14:02. The assay is described as above. Particulars: source organism: Homo sapiens.
The target in assay [9] is HLA-B*18:01. Described as above. Particulars: source organism: Homo sapiens.
The next assay has as its target HLA-B*35:01. Described as above. Particulars: source organism: Homo sapiens.
A further assay has as its target HLA-B*37:01. The assay is described as above. Particulars: source organism: Homo sapiens.
The next assay deals with HLA-B*40:02. The description is as above. Particulars: source organism: Homo sapiens.
Another assay addresses HLA-B*44:03. Described as above. Particulars: source organism: Homo sapiens.
The target of assay [10] is HLA-B*51:01. The description is as above. Particulars: source organism: Homo sapiens.
For assay [11], the target named is HLA-B*53:01. The description is as above. Particulars: source organism: Homo sapiens.
Assay [12] concerns the target HLA-B*58:01. Described as above. The settings on record: source organism: Homo sapiens.
Assay [13] concerns the target HLA-A*02:01. Put plainly: IEDB peptide-MHC binding, purified MHC/direct/fluorescence; filed as Kd, often an IC50 or EC50 that approximates it; ≥ and ≤ were set here for values at or beyond the usual limits of such assays. Particulars: source organism: Mycobacterium tuberculosis str. Haarlem.
The target in another assay is HLA-A*02:06. Described as above. Particulars: source organism: Mycobacterium tuberculosis str. Haarlem.
A further assay deals with HLA-A*02:12. The description is as above. The settings on record: source organism: Mycobacterium tuberculosis str. Haarlem.
Assay [14] concerns the target HLA-A*03:01. The assay is described as above. Particulars: source organism: Mycobacterium tuberculosis str. Haarlem.
The target in a further assay is HLA-A*24:03. The description is as above. The settings on record: source organism: Mycobacterium tuberculosis str. Haarlem.
For a further assay, the target named is HLA-A*26:01. The description is as above. Particulars: source organism: Mycobacterium tuberculosis str. Haarlem.
The target in assay [15] is HLA-A*29:02. The assay is described as above. Particulars: source organism: Mycobacterium tuberculosis str. Haarlem.
The target of assay [16] is HLA-B*18:01. The description is as above. Particulars: source organism: Mycobacterium tuberculosis str. Haarlem.
A further assay concerns the target HLA-B*27:03. The assay is described as above. The settings on record: source organism: Mycobacterium tuberculosis str. Haarlem.
Another assay has as its target HLA-B*39:01. Described as above. Particulars: source organism: Mycobacterium tuberculosis str. Haarlem.
A further assay concerns the target HLA-B*46:01. The assay is described as above. Particulars: source organism: Mycobacterium tuberculosis str. Haarlem.
In assay [17] the target is HLA-B*51:01. Described as above. The settings on record: source organism: Mycobacterium tuberculosis str. Haarlem.
In another assay the target is HLA-B*57:01. The description is as above. The settings on record: source organism: Mycobacterium tuberculosis str. Haarlem.
For assay [18], the target named is HLA-A*01:01. Put plainly: IEDB peptide-MHC binding, purified MHC/competitive/fluorescence; filed as Kd, often an IC50 or EC50 that approximates it; ≥ and ≤ were set here for values at or beyond the usual limits of such assays. Particulars: source organism: Mycobacterium tuberculosis variant bovis BCG str. Pasteur 1173P2.
Assay [19] concerns the target HLA-A*11:01. The description is as above. Particulars: source organism: Mycobacterium tuberculosis variant bovis BCG str. Pasteur 1173P2.
A further assay has as its target HLA-A*23:01. The description is as above. The settings on record: source organism: Mycobacterium tuberculosis variant bovis BCG str. Pasteur 1173P2.
For a further assay, the target named is HLA-A*30:01. The description is as above. Particulars: source organism: Mycobacterium tuberculosis variant bovis BCG str. Pasteur 1173P2.
Another assay deals with HLA-A*30:02. The description is as above. Particulars: source organism: Mycobacterium tuberculosis variant bovis BCG str. Pasteur 1173P2.
Another assay deals with HLA-A*66:01. The description is as above. Particulars: source organism: Mycobacterium tuberculosis variant bovis BCG str. Pasteur 1173P2.
Assay [20] has as its target HLA-B*08:01. The assay is described as above. Particulars: source organism: Mycobacterium tuberculosis variant bovis BCG str. Pasteur 1173P2.
Assay [21] addresses HLA-B*14:02. The description is as above. The settings on record: source organism: Mycobacterium tuberculosis variant bovis BCG str. Pasteur 1173P2.
For a further assay, the target named is HLA-B*27:05. Described as above. The settings on record: source organism: Mycobacterium tuberculosis variant bovis BCG str. Pasteur 1173P2.
Another assay has as its target HLA-B*40:01. Described as above. The settings on record: source organism: Mycobacterium tuberculosis variant bovis BCG str. Pasteur 1173P2.
For assay [22], the target named is HLA-B*44:02. The assay is described as above. Particulars: source organism: Mycobacterium tuberculosis variant bovis BCG str. Pasteur 1173P2.
The target of assay [23] is HLA-B*53:01. The assay is described as above. Particulars: source organism: Mycobacterium tuberculosis variant bovis BCG str. Pasteur 1173P2.
Assay [24] addresses HLA-B*58:01. The assay is described as above. Particulars: source organism: Mycobacterium tuberculosis variant bovis BCG str. Pasteur 1173P2.
The target in assay [25] is HLA-B*44:02. Put plainly: IEDB peptide-MHC binding, purified MHC/competitive/fluorescence; ≥ and ≤ were set here for values at or beyond the usual limits of such assays. The settings on record: source organism: Homo sapiens.

For KYFNINYYK, the IC50 with HLA-A*11:01 [1] was determined as 0.2 µM.

Take MVRVLTVIKEY: the IC50 in the assay with HLA-A*01:01 [2] is no less than 20 µM; in the assay with HLA-A*02:01 [3] it was no less than 20 µM; with HLA-A*03:01 [4], no less than 20 µM; in the assay with HLA-A*11:01 [5] it was 0.833 µM; in the assay with HLA-A*24:02 it was no less than 20 µM; in the assay with HLA-A*25:01, 1.29 µM. The IC50 with HLA-A*29:02 [6] was 0.0053 µM; with HLA-A*31:01, no less than 20 µM; in the assay with HLA-A*68:02, no less than 20 µM; with HLA-B*07:02 it was no less than 20 µM; with HLA-B*08:01 [7], no less than 20 µM; with HLA-B*14:02 [8] it was no less than 20 µM. Also, the IC50 was 2.77 µM with HLA-B*18:01 [9]; 0.0205 µM in the assay with HLA-B*35:01; no less than 20 µM with HLA-B*37:01; no less than 20 µM with HLA-B*40:02; no less than 20 µM in the assay with HLA-B*44:03; no less than 20 µM in the assay with HLA-B*51:01 [10]. In addition, the IC50 with HLA-B*53:01 [11] and with HLA-B*58:01 [12] was no less than 20 µM throughout.

RVACRDVEV: the Kd in the assay with HLA-A*02:01 [13] was 0.254 µM; in the assay with HLA-A*02:06, 0.002 µM; with HLA-A*02:12, 0.032 µM; with HLA-A*03:01 [14] it was no less than 20 µM; with HLA-A*24:03, no less than 20 µM; with HLA-A*26:01, no less than 20 µM. The Kd with HLA-A*29:02 [15], with HLA-B*18:01 [16], with HLA-B*27:03, in the assay with HLA-B*39:01, with HLA-B*46:01 and with HLA-B*51:01 [17] was no less than 20 µM throughout. The Kd with HLA-B*57:01 is no less than 20 µM; with HLA-A*01:01 [18], no less than 5 µM; in the assay with HLA-A*11:01 [19] it was no less than 5 µM; with HLA-A*23:01 it was no less than 5 µM; in the assay with HLA-A*30:01, no less than 5 µM; in the assay with HLA-A*30:02, no less than 5 µM. Besides, the dissociation constant Kd with HLA-A*66:01 was no less than 5 µM; in the assay with HLA-B*08:01 [20], no less than 5 µM; with HLA-B*14:02 [21], 3 µM; in the assay with HLA-B*27:05, no less than 5 µM; in the assay with HLA-B*40:01, no less than 5 µM; with HLA-B*44:02 [22] it was no less than 5 µM. Further, the Kd with HLA-B*53:01 [23] and in the assay with HLA-B*58:01 [24] was no less than 5 µM throughout.

On to FYYNAFHW, for which the IC50 was 2.61 µM with HLA-A*24:02 and no less than 20 µM with HLA-B*44:02 [25].

These data come from the Immune Epitope Database (IEDB).
